{
  "source": "paper PMC10543557",
  "target": "FAM-labeled recombinant full-length SARS-CoV-2 Nsp1 (SARS-CoV-2-Nsp1_C-51-V) (SARS-CoV-2) (UniProt P0DTD1)",
  "experiment": "fluorescence polarisation",
  "data": [
    {"substance": "40S ribosomal subunit purified from rabbit reticulocyte lysate (from UniProt G1TNM3 1-243; G1SWM1 1-292) (complex)", "values": [
      {"measurement": "Kd", "value": 30, "unit": "nM"}
    ]}
  ]
}
